Key:
[1] = molecular target: T1, human CACNG1 expressed on cells (human, UniProt Q06432 1-222); test: cell-based or functional assay
[2] = molecular target: T1, human CACNG1 expressed on cells; test: cell-based or functional assay; remark: listed apart in the source
[3] = molecular target: T1, human CACNG1 expressed on cells; test: cell-based or functional assay; remark: listed apart in the source
[4] = molecular target: T1, human CACNG1 expressed on cells; test: cell-based or functional assay; remark: listed apart in the source
[5] = molecular target: T2, mouse CACNG1 expressed on cells (mouse, UniProt O70578 1-223); test: cell-based or functional assay
T2 sequence (looked up): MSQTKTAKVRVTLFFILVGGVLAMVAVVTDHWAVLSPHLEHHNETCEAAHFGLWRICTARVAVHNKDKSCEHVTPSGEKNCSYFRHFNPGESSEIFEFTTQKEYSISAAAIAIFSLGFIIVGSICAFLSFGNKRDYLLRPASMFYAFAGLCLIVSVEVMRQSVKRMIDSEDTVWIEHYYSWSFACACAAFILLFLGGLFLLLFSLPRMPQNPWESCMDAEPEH

[6] = molecular target: T1, human CACNG1 expressed on cells; test: imaging cell binding, HEK293/hCACNG1
Protocol: (§1) HuSKM were seeded in collagen-coated 96-well plates (Greiner Bio-One #655956) at 8,500 cells/well and grown for 24 hours. The growth media was changed to MyoTonic Differentiation Media (Cook Myosite Cat #MD-5555) and replaced every 2 days. Myotubes were assayed after 6 days of differentiation. C2C12 mouse myoblasts were maintained in DMEM with 10% FBS and 1% penicillin-streptomycin supplement and grown in a 37° C. incubator with 5% CO₂. C2C12 cells were seeded in collagen-coated 96-well plates (Greiner Bio-One #655956) at 10,000 cells/well for the cell binding assay and 5,000 cells/well for the cell killing assay. After 24 hours, growth media was replaced with differentiation media (DMEM with 2% horse serum) and placed in a 37° C. incubator with 7.5% CO₂. C2C12 myotubes were assayed after 3 days of differentiation. HEK293/hCACNG1, HEK293/mCACNG1, and HEK293 cells were seeded at 10,000 cells (cell binding assay) or 2,000 (cell killing assay) per well in 96-well black collagen coated plates (Greiner Bio-One, cat #655956) in complete growth media and grown overnight at 37° C. in 5% CO₂.
(§2) Relative binding of anti-CACNG1 antibodies was assessed across the entire panel of cell lines via imaging analysis. […] After one wash with antibody dilution buffer, samples were fixed in CytoFix (BD Biosciences, Cat #554655) diluted 1:1 in PBS and supplemented with a 1:2000 dilution of Hoechst 33342 (Thermo, Cat #H1399) for 20 minutes on ice. Images were acquired with a 10× objective on the Opera Phenix (Perkin Elmer) and relative fluorescence units (RFU) was determined using Harmony software (Perkin Elmer).

[7] = molecular target: T2, mouse CACNG1 expressed on cells; test: imaging cell binding, HEK293/mCACNG1
Protocol: as §1, §2

[8] = molecular target: T1, human CACNG1 expressed on cells; test: imaging cell binding, HuSKM myotubes
Protocol: as §1, §2

[9] = molecular target: T3, nanodisc embedded human CACNG1 expressed with a C-terminal PADRE-Flag-His tag (human, UniProt Q06432 1-222); test: SPR, anti-His-captured nanodisc, 25 C
T3 construct: Captured on an anti-His Biacore surface; also called human CACNG1 nanodisc; CACNG1 nanodisc; not shown: C-terminal tag
Protocol: Equilibrium dissociation constants (KD values) for nanodisc embedded human CACNG1 expressed with a C-terminal […] tag (human CACNG1 nanodisc; concentration 0.82 mg/ml) binding to purified anti-CACNG1 antibodies were determined using a real-time surface plasmon resonance biosensor technology with a Biacore T200 instrument. The CM5 Biacore sensor surface was derivatized by amine coupling with a monoclonal mouse anti-His antibody (Cytiva; Marlborough, MA). All Biacore binding studies were performed in a buffer composed of 0.01M HEPES, 0.15M NaCl, 1 mM CaCl₂, 0.5 mM MgCl₂, pH 7.4 (HBS-N++ running buffer). Different concentrations of anti-CACNG1 antibodies (ranging from 300 nM to 12 nM in 5-fold serial dilutions) prepared in HBS-N++ running buffer were injected over the captured human CACNG1 nanodisc at a flow rate of 30 μL/minute. Antibody association was monitored for 2 minutes while dissociation was monitored in HBS-N++ running buffer for 5 minutes. At the end of each cycle, the human CACNG1 nanodisc capture surface was regenerated using three 10 second injections of 10 mM Gly pH1.5. All binding kinetics experiments were performed at 25° C.
The specific SPR-Biacore sensorgrams were obtained by a double referencing procedure. The double referencing was performed by first subtracting the signal of each injection over a reference surface (anti-His) from the signal over the experimental surface (anti-His captured human CACNG1 nanodisc) thereby removing contributions from refractive index changes. In addition, running buffer injections were performed to allow subtraction of the signal changes resulting from the dissociation of captured antibodies from the coupled anti-His surface. Kinetic association (kₐ) and dissociation ([…]) rate constants were determined by fitting the real-time sensorgrams to a 1:1 binding model using Scrubber v2.0c curve fitting software. Binding dissociation equilibrium constants (KD) and dissociative half-lives (t %) were calculated from the kinetic rate constants as: […]

[10] = molecular target: T2, mouse CACNG1 expressed on cells; test: imaging cell binding, C2C12 mouse myotubes
Protocol: as §1, §2

T1 sequence (Q06432 whole entry): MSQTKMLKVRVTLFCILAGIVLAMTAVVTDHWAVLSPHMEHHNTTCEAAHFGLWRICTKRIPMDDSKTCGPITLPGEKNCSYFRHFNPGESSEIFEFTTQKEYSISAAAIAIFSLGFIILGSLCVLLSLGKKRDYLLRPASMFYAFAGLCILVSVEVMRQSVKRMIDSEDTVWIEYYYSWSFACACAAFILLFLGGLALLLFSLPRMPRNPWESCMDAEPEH
T3 sequence (Q06432 whole entry): as above

B1: REGN14571-M3004 (antibody, human IgG1, kappa, N297Q)
heavy chain: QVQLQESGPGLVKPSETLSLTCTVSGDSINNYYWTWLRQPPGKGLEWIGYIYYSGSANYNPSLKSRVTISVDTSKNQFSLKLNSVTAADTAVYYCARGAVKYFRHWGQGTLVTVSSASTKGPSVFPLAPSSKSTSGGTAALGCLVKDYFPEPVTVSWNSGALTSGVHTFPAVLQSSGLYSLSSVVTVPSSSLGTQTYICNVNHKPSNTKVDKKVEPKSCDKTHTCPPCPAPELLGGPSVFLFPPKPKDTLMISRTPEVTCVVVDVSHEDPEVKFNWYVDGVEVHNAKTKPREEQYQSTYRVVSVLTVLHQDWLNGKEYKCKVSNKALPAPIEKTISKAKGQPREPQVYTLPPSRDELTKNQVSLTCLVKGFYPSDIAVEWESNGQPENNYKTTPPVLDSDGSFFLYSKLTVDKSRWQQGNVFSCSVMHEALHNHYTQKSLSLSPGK
light chain: EIVLTQSPGTLSLSPGERATLSCRASQTINHNNLAWYQQRPGQAPRLLIYGASNRATAIPDRFSGSGSGTDFTLTISRLEPEDFEVYSCQQYGSLPLTFGGGTKVEIKRTVAAPSVFIFPPSDEQLKSGTASVVCLLNNFYPREAKVQWKVDNALQSGNSQESVTEQDSKDSTYSLSSTLTLSKADYEKHKVYACEVTHQGLSSPVTKSFNRGEC
modifications: N297Q; DHT linker-payload M3004 conjugated, DAR about 4
[1]
  EC50 of androgen receptor luciferase reporter activation (RLU) by the DHT conjugate REGN14571-M3004 in hCACNG1.AR.Luc LNCaP cells, 24 hours; concentration adjusted for DAR: 7.83 nM
[2]
  EC50 of androgen receptor luciferase reporter activation (RLU) by the DHT conjugate REGN14571-M3004 in hCACNG1.AR.Luc LNCaP cells, 48 hours; concentration adjusted for DAR: 6.95 nM
[3]
  EC50 of androgen receptor luciferase reporter activation (RLU) by the DHT conjugate REGN14571-M3004 in hCACNG1.AR.Luc LNCaP cells, 72 hours; concentration adjusted for DAR: 5.44 nM

B2: REGN10717 (antibody, human IgG4 S228P, kappa)
heavy: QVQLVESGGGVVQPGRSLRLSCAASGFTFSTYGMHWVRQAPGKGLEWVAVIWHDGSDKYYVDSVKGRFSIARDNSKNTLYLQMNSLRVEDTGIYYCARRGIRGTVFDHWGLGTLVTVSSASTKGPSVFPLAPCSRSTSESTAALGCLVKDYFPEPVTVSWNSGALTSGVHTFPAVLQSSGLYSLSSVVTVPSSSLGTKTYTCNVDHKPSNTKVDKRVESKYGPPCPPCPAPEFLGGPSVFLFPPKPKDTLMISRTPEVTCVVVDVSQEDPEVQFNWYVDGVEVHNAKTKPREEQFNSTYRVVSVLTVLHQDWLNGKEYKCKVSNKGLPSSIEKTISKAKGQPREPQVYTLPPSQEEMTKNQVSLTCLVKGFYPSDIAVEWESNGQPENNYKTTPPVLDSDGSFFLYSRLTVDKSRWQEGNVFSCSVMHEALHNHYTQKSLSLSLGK
light: DIQMTQSPSTLSASVGDRVTLTCRASQSISNKLAWYQQKPGKAPNLLIYKASNLESGVPSRFSGSGSGTEFTLTISSLQPDDFATYYCQQYNSYSWTFGQGTKVEIKRTVAAPSVFIFPPSDEQLKSGTASVVCLLNNFYPREAKVQWKVDNALQSGNSQESVTEQDSKDSTYSLSSTLTLSKADYEKHKVYACEVTHQGLSSPVTKSFNRGEC
notes: hIgG4
[4]
  % KILL, indirect cell killing, HEK293/hCACNG1: 97%
  % KILL, indirect cell killing, HuSKM: 99.6%
  EC50/IC50, indirect cell killing, HEK293/hCACNG1: 0.000806 nM
  EC50/IC50, indirect cell killing, HuSKM: 0.0364 nM
[5]
  % KILL, indirect cell killing, C2C12: 99.8%
  % KILL, indirect cell killing, HEK293/mCACNG1: 96%
  EC50/IC50, indirect cell killing, C2C12: 0.00356 nM
  EC50/IC50, indirect cell killing, HEK293/mCACNG1: 0.00118 nM
[6]
  EC50: > 100 nM
  S/N: 77.4 fold
[7]
  EC50: > 100 nM
  S/N: 23.6 fold
[8]
  EC50: 69 nM
  S/N: 292 fold
[9]
  Kd: 104 nM
  koff: 0.0304 s⁻¹
  kon: 294000 M⁻¹ s⁻¹
  mAb bound at 300 nM: 7 RU
  t1/2: 0.4 min
[10]
  EC50: > 100 nM
  S/N: 4.9 fold

B3: H2aM31929N (antibody, V domains shown)
VH: QVQLVESGGGVVQPGRSLRLSCTASGITFRNYGMHWVRQAPGKGLEWVAVMWYDGSNKYYADSVKGRFTISGDNSKVYLQMNSLRAEDTAVYYCARRGTIRTAAPFDYWGQGTLVTVSS
VL: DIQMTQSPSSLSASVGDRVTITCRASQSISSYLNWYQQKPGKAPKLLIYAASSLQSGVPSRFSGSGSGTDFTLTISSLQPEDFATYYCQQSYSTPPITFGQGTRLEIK
notes: also called H2aM31929N/REGN10728 (lot H2aM31929N-L1)
[4]
  % KILL, indirect cell killing, HEK293/hCACNG1: 95%
  % KILL, indirect cell killing, HuSKM: 96.3%
  EC50/IC50, indirect cell killing, HEK293/hCACNG1: 0.00277 nM
  EC50/IC50, indirect cell killing, HuSKM: 0.031 nM
[5]
  % KILL, indirect cell killing, C2C12: 7.5%
  % KILL, indirect cell killing, HEK293/mCACNG1: 18.3%
  EC50/IC50, indirect cell killing, C2C12: > 10 nM
  EC50/IC50, indirect cell killing, HEK293/mCACNG1: > 1 nM
[6]
  EC50: 6.2 nM
  S/N: 84 fold
[7]
  S/N: 1 fold
[8]
  EC50: 1.9 nM
  S/N: 252 fold
[9]
  Kd: 0.745 nM
  koff: 0.000559 s⁻¹
  kon: 750000 M⁻¹ s⁻¹
  mAb bound at 300 nM: 25 RU
  t1/2: 20.7 min
[10]
  S/N: 1.2 fold
  binding result: no binding (tested: 100 nM highest tested)

From patent US20240182561A1 (Regeneron, published 2024)
